{"source": "the DeepSol protein solubility set", "data": [{"test": "soluble on expression in E. coli; label from the status in PepcDB or PDB records", "values": [{"sequence": "DSDWEDIHYAYFSAICQARKNVYIETPYFIPDESLLKAIKSAALSGVDVRIIFPKIADHKIVNIASYSYFEEILRAGGKVYLYNKGFIHSKVVIIDDKIASAGTANMDLRSFMLNFEVNAFIYDEEVIRVMTDDFFEDLSYCEELNLEVFKNR", "soluble on expression in E. coli": "not soluble"}, {"sequence": "MPLVQMKDILMKANQENYGVGAFSVTNMEMVMGAIKAAEELSSPLILQIAEVRLNHSPIHMIGPLMVAAAKQATVPVAVHFDHGMTFEKIQETLEIGFSSVMFDGSHYPLEENIQKTKEIVELAKQYGATVEAEIGRVGGSEDGSEDIEMLLTSTTEAKRFAEETDVDALAVAIGNAHGMYNGDPNLRLDRLQEINDVVHIPLVLHGGSGISPEDFKQCIQHGVRKINVATATFQNVITAVNNTVLNTPYSDYFTYHQDVIKAAYENVKSHMQIFGSENRA", "soluble on expression in E. coli": "not soluble"}, {"sequence": "MSLGSDIPTLRAALARSDAWLVACFCAAWCDTCQQYRPKLLELARARPGHTFAWIDIEDHPDLLGEEDVENFPTLLVQAHGKVLFYGPMLPHIGHLERLLDSLDPQGREGHHHHHH", "soluble on expression in E. coli": "soluble"}, {"sequence": "GISVDKRIEQATSDFLAAAQAIDLQEHLISGYRSVDYQTELYQSYIKKEMANDPTLTQEAAEALVQTYSQPPGASEHHTGLAIDMSTVDTLNASDPSVAKAVQKIAPDYGFVLRFPEGKKTSTGVDYEDWHYRYVGKASARYMAQHNLTLEEYIAALKEKR", "soluble on expression in E. coli": "not soluble"}, {"sequence": "MSQAAFVNPSILTWSRERAGLSAAQVARKLPVKPERVEEWESGEARPTFLQAQKWASVAHVPFGFLFLLQPPVEQLPLPDLRTVGNSAPLRPSLELLDTVKDAIRKQDWYLEYLHVQERQPLPFVGRFDSRTPVKTVVSDIRQTLGVDPEKSRLDYDKYSRALIDAAEVAGVLVMRSGIALGNTHRKLEVSEFRGFAISNPLAPVVFINSSDAPTARLFTLMHELAHIWIGSSGVSDAGTANGREEERFCNAVAGEFLVPEALFRTVWSASIEWESNLATLATRFHVSKLVIGRRAMDLGYVTQEQYGAYYQKILKAFRDEKGGAEDYYRNATAKNSTRLSKAVLTETLSGRMLLREAGNLLGVQPAKLRTLAAEHL", "soluble on expression in E. coli": "not soluble"}, {"sequence": "MNETEFYAYHIVTRKKMHIGQMIPFNKNQHNTLYHFFFEREQLNANGEDGIQILNNHYKNDELHINNENAKVVISYMDQTIRAARETIVEMVRLQEFPEYPSRLSCLYAAKSYEDALKWKALFDSYNREVLQIVKLRVIGSSFEGDGNLLPKEDGIPFSQKIEQARKYWKGNIRNELPELLINGEIEVVEIIDDFSSIHI", "soluble on expression in E. coli": "soluble"}, {"sequence": "MNPEKNLYPYTQESSLEQALNFEIAQVWHTRSEGTYRSFDKTHIYWCSLKHPEHQKAVVIVNGRIESAWKYQELCYDLFRQGFDVYTYDHRGQGRSERLTEDRQIGHVHEFQDYVTDLKALVEHFDLGHYQERFLLAHSMGGAIATRYIQTTPAHPFSALALSAPMFGVNMPWYLRPWALLITQIMAAVTLKPSYAPGYGPYHAKPFHLNLLTHSETRYQLFRELYEAHPELQIGGPSHRWVWQSLMATKQCLQLTRQIKIPMLILQAGEEAIVCNRAQIRLFKKLSRTQKRAALCRIAGARHELLFEQDAYRNQTLDHILRFFADSTIDHKRQHHRP", "soluble on expression in E. coli": "not soluble"}, {"sequence": "MKVLVVGSGGREHALLWKAAQSPRVKRLYAAPGNAGMEALAELVPWNGDVEALADWALAEGIDLTLVGPEAPLVEGIADAFQARGLLLFGPTQKAAMIEGSKAFAKGLMERYGIPTARYRVFREPLEALAYLEEVGVPVVVKDSGLAAGKGVTVAFDLHQAKQAVANILNRAEGGEVVVEEYLEGEEATVLALTDGETILPLLPSQDHKRLLDGDQGPMTGGMGAVAPYPMDEATLRRVEEEILGPLVRGLRAEGVVYRGVVYAGLMLTREGPKVLEFNARFGDPEAQALLPLLENDLVELALRVAEGRLAGTRLSWKEGAAACVVLAAPGYPESPRKGIPLHVPEPPEGVLVFHAGTRREGGRLVSAGGRVLNVVGLGRDLKEALERAYAYIPQVGFPGAVYRRDIGRRALARLST", "soluble on expression in E. coli": "soluble"}, {"sequence": "MNMDFNLFMNDIVRQARQEITAAGYTELKTAEEVDEALTKKGTTLVMVNSVCGCAGGIARPAAYHSVHYDKRPDQLVTVFAGQDKEATARARDYFEGYPPSSPSFAILKDGKIMKMVERHEIEGHEPMAVVAKLQEAFEEYCEEV", "soluble on expression in E. coli": "not soluble"}]}]}
